The Immune Epitope Database (IEDB)
Each block holds one sequence with its values, some of them ahead of it.

Legend:
HLA-A*24:03 = test: IEDB peptide-MHC binding, purified MHC/direct/fluorescence; filed as Kd, often an IC50 or EC50 that approximates it; ≥ and ≤ were set here for values at or beyond the usual limits of such assays; conditions: source organism: Vibrio parahaemolyticus
HLA-B*44:02 = test: IEDB peptide-MHC binding, purified MHC/competitive/radioactivity; filed as Kd, often an IC50 or EC50 that approximates it; ≥ and ≤ were set here for values at or beyond the usual limits of such assays; conditions: source organism: Dengue virus 1 Singapore/S275/1990
HLA-A*32:01 = test: as above
HLA-A*30:01 = test: as above
HLA-A*11:01 = test: as above; conditions: source organism: Dengue virus 3 Martinique/1243/1999
HLA-A*26:01 = test: as above
HLA-B*08:01 = test: as above
HLA-B*51:01 = test: IEDB peptide-MHC binding, purified MHC/competitive/fluorescence; filed as Kd, often an IC50 or EC50 that approximates it; ≥ and ≤ were set here for values at or beyond the usual limits of such assays
HLA-A*68:02 = test: IEDB peptide-MHC binding, purified MHC/competitive/radioactivity; filed as Kd, often an IC50 or EC50 that approximates it; ≥ and ≤ were set here for values at or beyond the usual limits of such assays
HLA-B*35:01 = test: as above; conditions: source organism: Dengue virus 1 Brazil/97-11/1997
HLA-A*68:01 = test: as above; conditions: source organism: Dengue virus 1 Brazil/97-11/1997
HLA-A*02:06 = test: as above
HLA-A*02:03 = test: as above
HLA-A*02:02 = test: as above
HLA-B*58:01 = test: IEDB peptide-MHC binding, purified MHC/direct/fluorescence; filed as Kd, often an IC50 or EC50 that approximates it; ≥ and ≤ were set here for values at or beyond the usual limits of such assays; conditions: source organism: Influenza A virus (A/swine/Hong Kong/273/1994(H1N1))
HLA-B*27:05 = test: as above; conditions: source organism: Influenza A virus (A/swine/Hong Kong/273/1994(H1N1))
HLA-A*03:01 [1] = test: as above; conditions: source organism: Influenza A virus (A/swine/Hong Kong/273/1994(H1N1))
HLA-B*15:01 [2] = test: as above; conditions: source organism: Influenza A virus (A/swine/Hong Kong/273/1994(H1N1))
HLA-A*01:01 = test: as above; conditions: source organism: Influenza A virus (A/swine/Hong Kong/273/1994(H1N1))
HLA-B*07:02 = test: as above; conditions: source organism: Influenza A virus (A/swine/Hong Kong/273/1994(H1N1))
HLA-A*02:12 = test: as above; conditions: source organism: Influenza C virus
HLA-B*15:01 [3] = test: IEDB peptide-MHC binding, purified MHC/competitive/radioactivity; filed as Kd, often an IC50 or EC50 that approximates it; ≥ and ≤ were set here for values at or beyond the usual limits of such assays
HLA-A*03:01 [4] = test: as above; conditions: source organism: Dengue virus 4 Philippines/H241/1956
HLA-A*02:01 = test: IEDB peptide-MHC binding, purified MHC/competitive/fluorescence; filed as Kd, often an IC50 or EC50 that approximates it; ≥ and ≤ were set here for values at or beyond the usual limits of such assays; conditions: source organism: Variola virus
[5] = source organism: Dengue virus 1 Brazil/97-11/1997
[6] = source organism: Dengue virus 2 Jamaica/1409/1983
[7] = source organism: Dengue virus 3 Martinique/1243/1999
[8] = source organism: Dengue virus 2 16681-PDK53
[9] = source organism: Vaccinia virus WR
[10] = source organism: Mammarenavirus juninense
[11] = source organism: Dengue virus 4 Philippines/H241/1956

Sequence: AFYLWIVGF
- Kd (HLA-A*24:03): 2100 nM

Sequence: AGILARWGSF
- Kd (HLA-B*44:02): 12600 nM
- Kd (HLA-A*32:01; source organism: Dengue virus 1 Singapore/S275/1990): 1140 nM

Sequence: AIFMTATPPG
- Kd (HLA-A*30:01; [5]): 179 nM

Sequence: ATMANEMGF
- Kd (HLA-A*32:01; [6]): 138 nM

Sequence: ATQLATLRK
- Kd (HLA-A*11:01): 67.8 nM
- Kd (HLA-A*30:01; [7]): 5.76 nM

Sequence: CTILAVVSVS
- Kd (HLA-A*26:01; [8]): ≥ 69700 nM
- Kd (HLA-A*30:01; [8]): 9700 nM

Sequence: DIMALIVSI
- Kd (HLA-A*32:01; source organism: Vaccinia virus): 114 nM

Sequence: DLRRRFDTF
- Kd (HLA-B*08:01; [9]): 1.58 nM

Sequence: ENRLHKECL
- Kd (HLA-B*08:01; [9]): 73.2 nM

Sequence: EPNFSIPQI
- Kd (HLA-B*51:01; source organism: Mycobacterium tuberculosis variant bovis BCG str. Pasteur 1173P2): 268 nM

Sequence: ETACLGKAYA
- Kd (HLA-A*26:01; [7]): 207 nM
- Kd (HLA-A*68:02; [7]): 3.62 nM

Sequence: FALLKFTYL
- Kd (HLA-B*08:01; [9]): 1.59 nM

Sequence: FNKDIFVSL
- Kd (HLA-B*08:01; [9]): 277 nM

Sequence: FTNMEVQLIR
- Kd (HLA-B*35:01): 14600 nM
- Kd (HLA-A*68:01): 87.4 nM

Sequence: GGALVRNPLS
- Kd (HLA-A*30:01; [6]): 5290 nM

Sequence: GLSQFTQTV
- Kd (HLA-A*02:06; [10]): 721 nM
- Kd (HLA-A*02:03; [10]): 0.699 nM
- Kd (HLA-A*02:02; [10]): 3.92 nM
- Kd (HLA-A*68:02; [10]): ≥ 26000 nM

Sequence: GMFNMLSTV
- Kd (HLA-B*58:01): ≥ 20000 nM
- Kd (HLA-B*27:05): 10100 nM
- Kd (HLA-A*03:01 [1]): ≥ 20000 nM
- Kd (HLA-B*15:01 [2]): 105 nM
- Kd (HLA-A*01:01): ≥ 20000 nM
- Kd (HLA-B*07:02): ≥ 20000 nM
- Kd (HLA-A*02:12): 49 nM

Sequence: GMNSRSTSL
- Kd (HLA-A*02:03; [6]): 18.2 nM
- Kd (HLA-B*15:01 [3]; [6]): 86.6 nM
- Kd (HLA-B*08:01; [6]): 7.81 nM

Sequence: HASPTLFNA
- Kd (HLA-A*30:01; [9]): 66.3 nM

Sequence: HLIFSYAFL
- Kd (HLA-A*30:01; [9]): 213 nM

Sequence: HMILVVVTTL
- Kd (HLA-B*15:01 [3]; [11]): 408 nM
- Kd (HLA-B*08:01; [11]): 5170 nM

Sequence: IFKLTYQNK
- Kd (HLA-A*30:01; [6]): 340 nM

Sequence: IGILLTWLGL
- Kd (HLA-A*32:01; [5]): ≥ 38800 nM

Sequence: ILCYFILIF
- Kd (HLA-A*32:01; [9]): 11500 nM

- Kd (HLA-A*02:06; source organism: Homo sapiens): ≥ 72500 nM
- Kd (HLA-A*68:02; source organism: Homo sapiens): 2250 nM
Sequence: ILKNSQGEEV

Sequence: ILKRWGQLK
- Kd (HLA-A*03:01 [4]): 3.58 nM
- Kd (HLA-A*30:01; [11]): 318 nM

Sequence: IMGQLTWNDL
- Kd (HLA-B*08:01; [5]): 6490 nM

Sequence: IPNDFKELV
- Kd (HLA-B*51:01; source organism: Rickettsia typhi str. Wilmington): 446 nM

Sequence: KAERVIDPRR
- Kd (HLA-A*30:01; [6]): 11400 nM

Sequence: KARDALDNL
- Kd (HLA-A*30:01; [6]): 71.5 nM

Sequence: KARNALDNL
- Kd (HLA-A*30:01; [8]): 19.7 nM

Sequence: KIDFLFFII
- Kd (HLA-A*32:01; source organism: Vaccinia virus Copenhagen): 1.97 nM

Sequence: KSAHFLLIF
- Kd (HLA-A*32:01; [9]): 0.185 nM

Sequence: KTMMINPFM
- Kd (HLA-A*30:01; [9]): 0.362 nM

Sequence: KVIVRNLNK
- Kd (HLA-A*30:01; [9]): 1.44 nM

Sequence: KVKNVHIGG
- Kd (HLA-A*30:01; [9]): 0.338 nM

Sequence: LALDSYWPV
- Kd (HLA-B*51:01; source organism: Yersinia pestis Nepal516): 711 nM

Sequence: LDILTEIASL
- Kd (HLA-B*08:01; [11]): 871 nM

Sequence: LIDNPDNNL
- Kd (HLA-A*02:01): 77.6 nM

Sequence: LLITHYAII
- Kd (HLA-A*02:03; [7]): 18.1 nM
- Kd (HLA-B*08:01; [7]): 371 nM

- Kd (HLA-A*02:03; source organism: Homo sapiens): 83.2 nM
- Kd (HLA-A*68:02; source organism: Homo sapiens): 1000 nM
Sequence: LLNVKMALDI

- Kd (HLA-A*02:03; source organism: Homo sapiens): 19.2 nM
- Kd (HLA-A*02:02; source organism: Homo sapiens): 5.73 nM
- Kd (HLA-A*68:02; source organism: Homo sapiens): ≥ 47200 nM
Sequence: LLSGAGEHL
